According to the Immune Epitope Database (IEDB):

Tests used:
HLA-A*31:01 [1] = experiment: IEDB peptide-MHC binding, purified MHC/competitive/fluorescence; filed as Kd, often an IC50 or EC50 that approximates it; ≥ and ≤ were set here for values at or beyond the usual limits of such assays
HLA-A*03:01 = experiment: IEDB peptide-MHC binding, purified MHC/direct/fluorescence; filed as Kd, often an IC50 or EC50 that approximates it; ≥ and ≤ were set here for values at or beyond the usual limits of such assays
HLA-A*11:01 [2] = experiment: as above
HLA-A*02:12 = experiment: as above; conditions: source organism: Ravn virus - Ravn, Kenya, 1987
HLA-A*02:01 [3] = experiment: as above
HLA-A*69:01 = experiment: as above
HLA-B*57:01 [4] = experiment: IEDB peptide-MHC binding, purified MHC/competitive/radioactivity; filed as Kd, often an IC50 or EC50 that approximates it; ≥ and ≤ were set here for values at or beyond the usual limits of such assays
HLA-B*53:01 = experiment: as above; conditions: source organism: Dengue virus 2 Jamaica/1409/1983
HLA-A*68:02 [5] = experiment: IEDB peptide-MHC binding, purified MHC/competitive/fluorescence; filed as Kd, often an IC50 or EC50 that approximates it; ≥ and ≤ were set here for values at or beyond the usual limits of such assays; conditions: source organism: Toxoplasma gondii
HLA-B*58:01 [6] = experiment: IEDB peptide-MHC binding, purified MHC/competitive/radioactivity; filed as Kd, often an IC50 or EC50 that approximates it; ≥ and ≤ were set here for values at or beyond the usual limits of such assays
HLA-A*68:01 = experiment: as above; conditions: source organism: Dengue virus 2 Jamaica/1409/1983
HLA-A*31:01 [7] = experiment: as above; conditions: source organism: Dengue virus 2 Jamaica/1409/1983
HLA-B*58:01 [8] = experiment: IEDB peptide-MHC binding, purified MHC/direct/fluorescence; filed as Kd, often an IC50 or EC50 that approximates it; ≥ and ≤ were set here for values at or beyond the usual limits of such assays
HLA-B*15:17 = experiment: as above
HLA-B*57:01 [9] = experiment: as above
HLA-A*02:01 [10] = experiment: IEDB peptide-MHC binding, purified MHC/competitive/fluorescence; ≥ and ≤ were set here for values at or beyond the usual limits of such assays; conditions: source organism: Zaire ebolavirus
HLA-A*11:01 [11] = experiment: as above
HLA-B*27:05 = experiment: IEDB peptide-MHC binding, purified MHC/direct/fluorescence; filed as Kd, often an IC50 or EC50 that approximates it; ≥ and ≤ were set here for values at or beyond the usual limits of such assays
HLA-B*18:01 = experiment: as above
HLA-A*01:01 = experiment: as above
HLA-B*48:01 = experiment: as above
HLA-B*40:01 = experiment: as above
HLA-B*46:01 = experiment: as above; conditions: source organism: Giardia lamblia ATCC 50803
HLA-B*15:01 = experiment: as above; conditions: source organism: Giardia lamblia ATCC 50803
HLA-A*68:02 [12] = experiment: as above
HLA-B*07:02 = experiment: as above
HLA-A*31:01 [13] = experiment: as above
HLA-B*44:02 = experiment: as above
HLA-B*08:01 = experiment: as above; conditions: source organism: Mammarenavirus lassaense
HLA-A*24:02 [14] = experiment: IEDB peptide-MHC binding, purified MHC/competitive/fluorescence; ≥ and ≤ were set here for values at or beyond the usual limits of such assays; conditions: source organism: Zaire ebolavirus
HLA-A*23:01 = experiment: IEDB peptide-MHC binding, purified MHC/competitive/radioactivity; filed as Kd, often an IC50 or EC50 that approximates it; ≥ and ≤ were set here for values at or beyond the usual limits of such assays; conditions: source organism: Dengue virus 2 Jamaica/1409/1983
HLA-A*24:02 [15] = experiment: as above; conditions: source organism: Dengue virus 2 Jamaica/1409/1983
HLA-A*32:01 = experiment: as above; conditions: source organism: Dengue virus 2 Peru/IQT2913/1996
[16] = source organism: Vibrio vulnificus
[17] = source organism: Marburg virus - Musoke, Kenya, 1980
[18] = source organism: Dengue virus 2 Jamaica/1409/1983
[19] = source organism: Dengue virus 4 Philippines/H241/1956
[20] = source organism: Dengue virus 1 Brazil/97-11/1997
[21] = source organism: Giardia lamblia ATCC 50803
[22] = source organism: Dengue virus 1 Singapore/S275/1990
[23] = source organism: West Nile virus
[24] = source organism: Zaire ebolavirus
[25] = source organism: Rickettsia massiliae
[26] = source organism: Mammarenavirus lassaense
[27] = source organism: Sudan ebolavirus
[28] = source organism: Lassa virus GA391
[29] = source organism: Rickettsia prowazekii
[30] = source organism: Salmonella enterica
[31] = source organism: Dengue virus 2 Peru/IQT2913/1996
[32] = source organism: Mammarenavirus juninense
[33] = source organism: Coxiella burnetii
[34] = source organism: Camelpox virus M-96
[35] = source organism: Yellow fever virus 1899/81

## ASILSRMAY
HLA-A*31:01 [1]; source organism: Vibrio vulnificus YJ016
  Kd: ≥ 20000 nM
HLA-A*03:01; [16]
  Kd: 974 nM
HLA-A*11:01 [2]; [16]
  Kd: 7.4 nM

## ALKEAIEMV
HLA-A*02:12
  Kd: 4 nM
HLA-A*02:01 [3]; [17]
  Kd: 127 nM
HLA-A*69:01; [17]
  Kd: 1800 nM

## EAVEDSRFW
HLA-B*57:01 [4]; [18]
  Kd: 22.2 nM
HLA-B*53:01
  Kd: 13 nM

## HNFRAPAPV
HLA-A*68:02 [5]
  Kd: ≤ 0.1 nM

## ASSMVNGVVR
HLA-B*58:01 [6]; [18]
  Kd: 2060 nM
HLA-B*57:01 [4]; [18]
  Kd: 1400 nM
HLA-A*68:01
  Kd: 47.7 nM
HLA-A*31:01 [7]
  Kd: ≥ 44100 nM

## NSSVNVSLTA
HLA-B*58:01 [6]; [18]
  Kd: 10 nM
HLA-B*57:01 [4]; [18]
  Kd: 433 nM

## TASGKLVTQW
HLA-B*58:01 [6]; [19]
  Kd: 22.6 nM
HLA-B*57:01 [4]; [19]
  Kd: 1090 nM

## GSSIGKMFEA
HLA-B*58:01 [6]; [20]
  Kd: 3000 nM
HLA-B*57:01 [4]; [20]
  Kd: 853 nM

## KAMSTPFSL
HLA-B*58:01 [8]; [21]
  Kd: 15.3 nM
HLA-B*15:17; [21]
  Kd: 1.3 nM
HLA-B*57:01 [9]; [21]
  Kd: 84.9 nM

## AVFVDENQW
HLA-B*57:01 [4]; [20]
  Kd: 0.913 nM

## RLSAAIGKAW
HLA-B*58:01 [6]; [22]
  Kd: 6.2 nM

## RLCYGGPWK
HLA-A*31:01 [1]; [23]
  Kd: ≥ 20000 nM
HLA-A*03:01; [23]
  Kd: 517 nM
HLA-A*11:01 [2]; [23]
  Kd: 358 nM

## NTIAGVAGL
HLA-A*02:01 [10]
  IC50: 32000 nM
HLA-A*11:01 [11]; [24]
  IC50: ≥ 144000 nM

## WSSFKKNGAI
HLA-B*58:01 [6]; [20]
  Kd: 5310 nM
HLA-B*57:01 [4]; [20]
  Kd: 1020 nM

## MGFGHRIYK
HLA-A*31:01 [1]; source organism: Dictyostelium discoideum
  Kd: 1.43 nM
HLA-A*03:01; [25]
  Kd: 3.7 nM
HLA-A*11:01 [2]; [25]
  Kd: 3.2 nM

## RTLGSFTWF
HLA-B*58:01 [8]; [26]
  Kd: 13.8 nM
HLA-B*15:17; [26]
  Kd: ≤ 1 nM

## NPLPNQDND
HLA-A*11:01 [11]; [27]
  IC50: ≥ 163000 nM

## RIGGVLIFR
HLA-B*27:05; [21]
  Kd: ≥ 5000 nM
HLA-A*03:01; [21]
  Kd: 69.5 nM
HLA-B*18:01; [21]
  Kd: ≥ 20000 nM
HLA-A*01:01; [21]
  Kd: ≥ 20000 nM
HLA-B*58:01 [8]; [21]
  Kd: 6000 nM
HLA-A*02:01 [3]; [21]
  Kd: ≥ 20000 nM
HLA-B*48:01; [21]
  Kd: ≥ 20000 nM
HLA-B*57:01 [9]; [21]
  Kd: ≥ 20000 nM
HLA-B*40:01; [21]
  Kd: ≥ 20000 nM
HLA-B*46:01
  Kd: ≥ 20000 nM
HLA-A*11:01 [2]; [21]
  Kd: 32.5 nM
HLA-A*69:01; [21]
  Kd: ≥ 20000 nM
HLA-B*15:01
  Kd: ≥ 20000 nM
HLA-A*68:02 [12]; [21]
  Kd: ≥ 20000 nM
HLA-B*07:02; [21]
  Kd: ≥ 20000 nM
HLA-A*31:01 [13]; [21]
  Kd: 11 nM

## FTSVGKLVHQ
HLA-B*58:01 [6]; [20]
  Kd: 1360 nM
HLA-B*57:01 [4]; [20]
  Kd: 2390 nM

## MTMPLSCTK
HLA-A*31:01 [1]; [28]
  Kd: 671 nM
HLA-A*03:01; [26]
  Kd: 622 nM
HLA-A*11:01 [2]; [26]
  Kd: 2.3 nM

## KTSVGVNMCT
HLA-B*58:01 [6]; [22]
  Kd: 1810 nM
HLA-B*57:01 [4]; [22]
  Kd: 8160 nM

## FVRSSPANF
HLA-B*27:05; [26]
  Kd: ≥ 20000 nM
HLA-B*44:02; [26]
  Kd: ≥ 20000 nM
HLA-A*03:01; [26]
  Kd: ≥ 20000 nM
HLA-B*18:01; [26]
  Kd: ≥ 20000 nM
HLA-A*01:01; [26]
  Kd: ≥ 20000 nM
HLA-B*58:01 [8]; [26]
  Kd: ≥ 20000 nM
HLA-A*02:01 [3]; [26]
  Kd: ≥ 20000 nM
HLA-B*48:01; [26]
  Kd: ≥ 20000 nM
HLA-B*40:01; [26]
  Kd: ≥ 20000 nM
HLA-B*08:01
  Kd: 2100 nM
HLA-A*11:01 [2]; [26]
  Kd: ≥ 20000 nM
HLA-A*69:01; [26]
  Kd: ≥ 20000 nM
HLA-A*31:01 [13]; [26]
  Kd: ≥ 20000 nM

## STYGISEDL
HLA-B*58:01 [8]; [29]
  Kd: ≥ 20000 nM
HLA-B*15:17; [29]
  Kd: 256 nM
HLA-B*57:01 [9]; [29]
  Kd: ≥ 20000 nM

## KTSLCLMMML
HLA-B*57:01 [4]; source organism: Dengue virus 3 China/80-2/1980
  Kd: 18.8 nM

## EAIVNAQPK
HLA-A*24:02 [14]
  IC50: 28400 nM
HLA-A*11:01 [11]; [24]
  IC50: 34900 nM

## IVYLIDCER
HLA-A*31:01 [1]; source organism: Salmonella enterica subsp. arizonae
  Kd: 88.3 nM
HLA-A*03:01; [30]
  Kd: 939 nM
HLA-A*11:01 [2]; [30]
  Kd: ≥ 20000 nM

## KAAVEDEEFW
HLA-B*58:01 [6]; source organism: Dengue virus 3 Sri Lanka/1266/2000
  Kd: 11.4 nM

## LINDQLIMK
HLA-A*31:01 [1]; [28]
  Kd: ≥ 20000 nM
HLA-A*03:01; [26]
  Kd: ≥ 20000 nM
HLA-A*11:01 [2]; [26]
  Kd: 285 nM

## TWSIHAKHEW
HLA-B*58:01 [6]; [18]
  Kd: 14.8 nM
HLA-A*23:01
  Kd: 1950 nM
HLA-A*24:02 [15]
  Kd: 39.9 nM

## KSYAQMWSL
HLA-B*58:01 [6]; [31]
  Kd: 3.99 nM
HLA-A*32:01
  Kd: 6.3 nM
HLA-B*57:01 [4]; [31]
  Kd: 5.58 nM

## KLNKFISPK
HLA-A*31:01 [1]; [32]
  Kd: 26 nM
HLA-A*03:01; [32]
  Kd: 222 nM

## DAASSRITK
HLA-A*11:01 [11]; [27]
  IC50: ≥ 121000 nM

## HSGDSSCAF
HLA-B*58:01 [8]; [33]
  Kd: 750 nM
HLA-B*15:17; [33]
  Kd: 252 nM
HLA-B*57:01 [9]; [33]
  Kd: ≥ 20000 nM

## AVSSGKNIK
HLA-A*02:01 [10]
  IC50: ≥ 164000 nM
HLA-A*11:01 [11]; [24]
  IC50: 55300 nM

## YERGNIIIF
HLA-B*27:05; [34]
  Kd: ≥ 20000 nM
HLA-B*44:02; [34]
  Kd: ≥ 20000 nM
HLA-B*18:01; [34]
  Kd: 31.9 nM
HLA-A*01:01; [34]
  Kd: ≥ 20000 nM
HLA-B*58:01 [8]; [34]
  Kd: ≥ 20000 nM
HLA-A*02:01 [3]; [34]
  Kd: ≥ 20000 nM
HLA-B*15:17; [34]
  Kd: ≥ 20000 nM
HLA-B*48:01; [34]
  Kd: ≥ 20000 nM
HLA-B*57:01 [9]; [34]
  Kd: ≥ 20000 nM
HLA-B*40:01; [34]
  Kd: 154 nM
HLA-A*11:01 [2]; [34]
  Kd: ≥ 20000 nM
HLA-A*69:01; [34]
  Kd: ≥ 20000 nM
HLA-A*68:02 [12]; [34]
  Kd: ≥ 20000 nM
HLA-B*07:02; [34]
  Kd: ≥ 20000 nM
HLA-A*31:01 [13]; [34]
  Kd: ≥ 20000 nM

## LSSTRVPNYN
HLA-B*58:01 [6]; [19]
  Kd: 202 nM
HLA-B*57:01 [4]; [19]
  Kd: 5970 nM

## RRWCFDGPR
HLA-B*48:01; [23]
  Kd: ≥ 20000 nM

## KSAHGSPTF
HLA-B*15:17; [35]
  Kd: 4.9 nM
HLA-B*57:01 [9]; [35]
  Kd: 1260 nM
